# Experimental data taken from publication PMC6445466 (2019).
# B1: human C1r, full-length enzyme (enzyme)
# chain: SIPIPQKLFGEVTSPLFPKPYPNNFETTTVITVPTGYRVKLVFQQFDLEPSEGCFYDYVKISADKKSLGRFCGQLGSPLGNPPGKKEFMSQGNKMLLTFHTDFSNEENGTIMFYKGFLAYYQAVDLDECASRSKSGEEDPQPQCQHLCHNYVGGYFCSCRPGYELQEDTHSCQAECSSELYTEASGYISSLEYPRSYPPDLRCNYSIRVERGLTLHLKFLEPFDIDDHQQVHCPYDQLQIYANGKNIGEFCGKQRPPDLDTSSNAVDLLFFTDESGDSRGWKLRYTTEIIKCPQPKTLDEFTIIQNLQPQYQFRDYFIATCKQGYQLIEGNQVLHSFTAVCQDDGTWHRAMPRCKIKDCGQPRNLPNGDFRYTTTMGVNTYKARIQYYCHEPYYKMQTRAGSRESEQGVYTCTAQGIWKNEQKGEKIPRCLPVCGKPVNPVEQRQRIIGGQKAKMGNFPWQVFTNIHGRGGGALLGDRWILTAAHTLYPKEHEAQSNASLDVFLGHTNVEELMKLGNHPIRRVSVHPDYRQDESYNFEGDIALLELENSVTLGPNLLPICLPDNDTFYDLGLMGYVSGFGVMEEKIAHDLRFVRLPVANPQACENWLRGKNRMDVFSQNMFCAGHPSLKQDACQGDSGGVFAVRDPNTDRWVATGIVSWGIGCSRGYGFYTKVLNYVDWIKKEMEEED
# B2: BBK32-C (residues 206-354, B. burgdorferi strain B31) (domain or fragment)
# chain: SNRYQSYLEGVKYNVDSAIQTITKIYNTYTLFSTKLTQMYSTRLDNFAKAKAKEEAAKFTKEDLEKNFKTLLNYIQVSVKTAANFVYINDTHAKRKLENIEAEIKTLIAKIKEQSNLYEAYKAIVTSILLMRDSLKEVQGIIDKNGVWY
# B3: BAD16-C (residues 204-352, B. afzelii strain PGau) (domain or fragment)
# chain: SNRYESYLEGVKYNVSSAIKTIVKIYDNYTLLSTKQTQMYSTRLDNLAKAKAREEAKKFTKEELEKDLKTLLNYIQVSARTATNFVYAREIYSKRKLDAIETEIKNLVLKIKGQSDLYEAYKAIVRSILLMKDSLKIIEIVIDKNGVWY
# Legend:
# [1] = biological target: B3; test: SPR
# human C1 complex = human C1 complex (human, UniProt P02745 23-245; P02746 28-253; P02747 29-245); test: SPR
Binder,Kd [1],Kd (human C1 complex)
B1,2.2 nM,
B2,,6 nM
B3,,5.4 nM
